Measurements as given in the DeepSol protein solubility set.

assay: soluble on expression in E. coli; label from the status in PepcDB or PDB records

Sequence	soluble on expression in E. coli
MLASLHIANYVLIDRLDIDFAPHFSVITGETGAGKSILLGALGLLVGGRADTSAIAPGTDRCIVEGRFTGFVPEMKAVLDRYDLDFDPDECTIRREISSKGKSRAFVNDTPAPLTALRELADFLIDIHSQHKNLLLGDSLFQLNVLDAYSGKPDLYAHYSKAYRVYAERKQKLEDLRKAAAATASEYDYWQFRFEQLDKAGLESGEEARLQEEQAMLTHALDIKRELGHSYSLLSDDERGLLSGLNKVEDALATIESYYPDSASFRQRVRDVRIELADIASDLGRRSDDVSYEPERLNAVTDRLDEILSLLHRYNADSSDALIAIRDDLAERLSRISTDEEEISRLEQEVLAFYKEIEAQASLLTEERIRAASALETSLCESLRKLNMPHVRFVVDIRSTEYGPHGADKVVFLFSANKQMEPEPVSEIASGGEIARLMLCLKALIADKRSLPAIVFDEIDTGVSGEVADRMGEIMAHMGQGMQVLAITHLPQIAARGERHYFVYKDETGERARTFIRELTPEERIREIARMQSGNNLTDVALAAAKELLAR	not soluble
MLCSMGTLFQRLSSLDGKGYGAYKSIAGRHALEGVPGAELFLDKVQSDPYAPASLSRVRVPLAALPFSGSLSTHQRDLLNRRIAGEFCHGLAIDCPGQQVLSRAAVTQLDDALQICFEVQLPARGRRIRGREAAQLLCTTLSRALDRALCITAGGDALRAELEAAAELERDQAALR	not soluble
MLDTQTIAIVKSTIPLLAATGPKLTAHFYERMFKHHPELKNIFNMSNQSSGDQREALFNAICAYATNIENLAALLPTVERIAQKHTSLNIQPEHYPIVGEHLIATLDELFSPGQAVLDAWAKAYGVLADVFIQRESQIYQQSETETGGWRTLRRFRIIKKEQQSEVICSFVLAPEDGGQVLHYKPGQYLGIYIEHESLEFQEIRQYSLTTAPNGKTYRIAVKREEQGTVSNLLHRELNEGDIVRIAPPRGDFFLDVSPDTPVALISAGVGQTPMLSMLNTLYSQQHAAPVHWLHAAENGRVHAFADEVSAIAAKMPNLSRHVWYREPDLQDKHGEDYHSQGLMDLSSYQWLADDPKRHYYFCGPLPFMQFIGRQLLAQGIAPEQIHYECFGPHKVI	not soluble
MLDVPVLLAAVSPDSPCGDDLEYDAAFLELERIAQGQPERQMGDAVLPAEPPEWPRVRALASELFGRSKDLRVANLLLQSNVALDGLDGLADGLLLVRELLGQYWDGVYPLLDADDDNDPTFRINALTGLVAEPLLQLVWAIPLVRSRAFGPVNLRAALNAAGLQRFASETLSPEQIAGAFADADADALAATRRALDGAQEHALAIESGVAERVGSAQGLDLGPLRQLLRQALQVFDLYGPQGAGESLAPGAEAVADEQVGAAPVAAVAAPAPRASGEIANREDVLRQLDRLLEYYVRHEPSSPVPVLLKRAKTLVTADFAEIVRNLIPDGISQFETLRGPESE	not soluble
MLEEELARKIERYFSIEEEALKKIRISPAEGSFLRKIAEDNMQMILSYYSDAKHFYAKGDLINAFAALNYSYGWIDAGVRLGIFDGAGDHRLFTLYE	not soluble
MLEEPFFPYQSLASDLLAFLPEDSTDGSHDLSHIHRVWMNVRRLQDKEGGDLEALLAATLLHDCVAVEKNSPLRSQASTLSANKAASILQRMGWPAPRIELVAHAVQAHSFSAGVEPLTLEARILQDSDRLDAIGMIGVARCFYIAGRMGSALYDITNPTAIGRPYQDKRFTIEHFHTKLLSLASGFQTVEGARLAAVRHARLKDFLDGFMEEIGAPDLEHHHHHH	soluble
MLEKHWSKSLVDSFESSKNKPSNLNGKKYILSMFPYPSGRLHIGHMRVYTISDATARYYRLNGYEVIHPIGWDSFGLPAENAARDKGVDPREWTINNIESMKQQLLKTKILFDWEKEISTCEPEFFRWTQWIFCKLFEYGLVKRTSSEVNWDPIDKTVLAAEQIDNDGKSWRSGAKAEKKKLSQWMIETPKYAKRLQEGLRKMSEQWGEVADIQANWIGKCDVYRFMLPVMKDGSNDEIIDLRIKDIFEISNAEFLVLKQSHSLADKDATQFPYKLPFQVLNGVTGRQIPVIVVEDTYQPDVTSFLNSRIGNFQKDKILVEKFAIAEPKHKRKLTKNDIQEMASFGGYGGYETSRTLTDWVVSRQRGWGTPIPMIQTKDGKRVAVQLNKLPVLGSDRGQEVDKERFGESGVFDTDTLDTFFDSAWYYLRYLDNKNKSELISKGAMKNMPVDVYVGGIEHAAVHMFFARFVAYFLKDINVIQTAEPFTDLIPQGIVRGKTFIEKETGKYLGSEDVQQSGDKLTLKNDSSVEVDAVYEKMSKSKNNGVDLAAILDSEGVDMTRLRLLEAAAPRAPINWGETDLKGIKKLLDRIAAINSQIVDARDNGKPIELKKEIDGSIKETYNFFVRNVGMCLEVLHLHNTALMRIQGFTNALKKVDPIYLAHSPEGQRAVKSLIIMLQVFCPHVASEMWSALANDGSLVSDQKWPEVDKDADIEFLLMIDGVSGGRPSLDRRIIEEMSMDQLWERATFYEHADILRMMKEDGMKLKNSSYISRKGFHVTLSCSLEGDKEENRKKIGKILDRIQAEKRKLEIGKKGGKRKKEKKIVNK	not soluble
MLERILSRENLIQALERVEKNKGSYGVDEMDVKSLRLHLHENWTSIRNEIIEGSYFPKPVRRVEIPKPNGGVRKLGIPTVMDRFLQQAIAQILTQLYDPTFSERSFGFRPHRRGHNAVRQAKQWMKEGYRWVVDIDLEKFFDKVNHDRLMRKLSSRIQDPRVLQLIRRYLQTGVMERGLVSPNTEGTPQGGPLSPLLSNIVLDELDNELEKRGLKFVRYADDCNIYVRSKRAGLRIMESVTSFIENRLKLKVNREKSAVDRPWNRKFLGFSFTRGKDPKMRVSKESVKRLKQRIRELTSRRHSMKMSDRLRRLNRYLTGWLGYYQVVDTPSILAQIDAWIRRRLRMIRWKEWKTTSARQKNLVRLGIKKAKAWQWANSRKGYWRVAHSPIMDYALNSEYWKGQGLMSLAERYQTRRWTLEHHHHHH	soluble
MLESSLTFLLLPVGFPGEVLVTLARRAREAMPVPSLWLASTDPLEPPIEAYSWERMQFDAEKVNEHIHSVLYDYVREGIRIIGVVDADGYIPGFNFVFGLASTALGVATVYTRRLKTGGNGLYTERLLKEVLHEAGHLLGLDHCSNRECVMSFSRSVEEVDRKAPLFCSSCKAKLVLKYGSRGQLEHHHHHH	soluble
MLEVSVMTIRRDLHQEDEPLPLTLLGGYIVMVNKPAPSMPVIHDVPKNHRDDLPIAILAAGMVNENDLIFFDNGQEIPLVISMIPDAITFTGICYSHRVFVALNEKPNVTAILCGGTYRARSDAFYDASNSSPLDSLNPRKIFISASGVHNHFGVSWFNPEDLATKRKVMNRGLRKILLARHALFDEVASASLAPISAFDVLISDRPLPADYVTHCQNGSVKIITPDSEDELEHHHHHH	not soluble
MLICNDKSNPKTLLEEIMALRPWRKGPFEISQIKIDSEWDSSIKWDLVKNATPLKDKVVADVGCNNGYYLFKMLEHGPKSLVGFDPGVLVKKQFEFLAPFFDKEKKIIYESLGVEDLHEKYPNAFDVIFCLGVLYHRKSPLEALKALYHALKIKGELVLDTLIIDSPLDIALCPKKTYAKMKNVYFIPSVSALKGWCERVGFENFEILSVLKTTPKEQRKTDFILGQSLEDFLDKTDPSKTLEGYDAPLRGYFKMLKPSKR	not soluble
MLIERIYDEDLAQASYFIGCQAHNTAVVVDPRRDIAVYLDMAKKNGMEIVGVTETHIHADYLSGTRELAAATNATMYVSGEGGADWQYEFDAERICDGSEIRLGNLVLTAVHTPGHTPEHLSFLLKDGAFADEPGFMLTGDFVFAGDLGRPDLLDEAAGGVDTRFEGARQMFKSLKEKFLTLPDHIQIFPGHGSGSACGKALGSVPSTTLGYERQFAWWGKYLEADDEQGFIDELLEGQPDAPAYFGRMKRQNRQGPAIMGARELLPQLEASDLHDVIVVDTRSADEVHQGTVAGAVNIPAGNSMAKFGSWTVDPEKDSRALVLLAASQIGAMEMWDHMVRVGIDNVAGFITNFDGVDLVAPQTVSPDQLDELEYDLLLDVRNRSEVEEGYIPGALHINGASVLWNLEKLPRDGKIVSYCKSGTRSSIAASTLRNAGFDVVELQGSYDNWVRHNAQLEHHHHHH	not soluble
